Laboratory results from patent US20240158512A1 (TRUEBINDING, published 2024).
Each block holds one binder with its values, some of them ahead of it.

Columns and labels:
Galectin-3 [1] = target: T1, Galectin-3 (UniProt P17931 1-250, limits assumed); assay: BLI; after -80 C for 12 months
T1 construct: Target of the anti-Gal3 antibody TB006; also called Gal3; GAL3

Galectin-3 [2] = target: T1, Galectin-3; assay: BLI; after 25 C for 14 days
Galectin-3 [3] = target: T1, Galectin-3; assay: ELISA blocking assay; TB006 diluted to 0.31 mg/mL in 0.9% NaCl, 25 C, 0 h; blocked partner not named; Bag #1, 0 h
Galectin-3 [4] = target: T1, Galectin-3; assay: BLI; after 3 freeze/thaws, 75% vol. of container
Galectin-3 [5] = target: T1, Galectin-3; assay: ELISA (Biological Activity); long-term stability 5 C, 1 month
Galectin-3 [6] = target: T1, Galectin-3; assay: ELISA blocking assay; TB006 diluted to 0.31 mg/mL in 0.9% NaCl, 25 C, 0 h; blocked partner not named
Galectin-3 [7] = target: T1, Galectin-3; assay: BLI; after -80 C for 1 month
Galectin-3 [8] = target: T1, Galectin-3; assay: ELISA (Biological Activity); long-term stability 5 C, 0 months
Galectin-3 [9] = target: T1, Galectin-3; assay: ELISA (Biological Activity); accelerated stability 25 C/60% RH, 0 months
Galectin-3 [10] = target: T1, Galectin-3; assay: BLI; after 4 C for 9 months
Galectin-3 [11] = target: T1, Galectin-3; assay: BLI; after 40 C for 28 days
Galectin-3 [12] = target: T1, Galectin-3; assay: BLI; after 4 C for 3 months
Galectin-3 [13] = target: T1, Galectin-3; assay: BLI; after -80 C for 9 months
Galectin-3 (Gal3) [14] = target: T2, Galectin-3 (Gal3) (UniProt P17931 1-250, limits assumed); assay: BLI; 50 mg/mL DS after -80 C for 1 month
T2 construct: Target of TB006
T2 sequence (P17931 whole entry): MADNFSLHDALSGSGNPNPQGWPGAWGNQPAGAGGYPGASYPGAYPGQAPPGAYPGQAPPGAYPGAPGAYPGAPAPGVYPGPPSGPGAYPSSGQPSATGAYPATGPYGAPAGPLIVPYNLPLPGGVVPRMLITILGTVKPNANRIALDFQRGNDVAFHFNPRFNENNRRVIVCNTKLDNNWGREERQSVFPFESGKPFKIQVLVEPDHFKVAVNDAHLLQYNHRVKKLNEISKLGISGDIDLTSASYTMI

Galectin-3 (Gal3) [15] = target: T2, Galectin-3 (Gal3); assay: BLI; 20 mg/mL DS after 4 C for 6 months
Galectin-3 (Gal3) [16] = target: T2, Galectin-3 (Gal3); assay: BLI; 20 mg/mL DS after -80 C for 9 months
Galectin-3 (Gal3) [17] = target: T2, Galectin-3 (Gal3); assay: BLI; 50 mg/mL DS after 3 freeze/thaws
Galectin-3 (Gal3) [18] = target: T2, Galectin-3 (Gal3); assay: BLI; 50 mg/mL DS after 4 C for 1 month
Galectin-3 (Gal3) [19] = target: T2, Galectin-3 (Gal3); assay: BLI; 50 mg/mL DS after 25 C for 3 months
Galectin-3 (Gal3) [20] = target: T2, Galectin-3 (Gal3); assay: BLI; 20 mg/mL DS after 40 C for 7 days
Galectin-3 (Gal3) [21] = target: T2, Galectin-3 (Gal3); assay: BLI; 20 mg/mL DS after -80 C for 6 months
In short: (§1)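 Binding to Galectin-3 was assessed by biolayer interferometry and given as the dissociation constant (Kd). Samples were tested at time zero or after stress, namely agitation (shear), repeated freeze-thaw cycles, or storage at set temperatures. The storage conditions included a 40° C stress test and cryogenic storage.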

Galectin-3 (Gal3) [22] = target: T2, Galectin-3 (Gal3); assay: BLI; 20 mg/mL DS, time 0 control
In short: as §1

Galectin-3 (Gal3) [23] = target: T2, Galectin-3 (Gal3); assay: BLI; 20 mg/mL DS after 40 C for 21 days
In short: as §1

Galectin-3 (Gal3) [24] = target: T2, Galectin-3 (Gal3); assay: BLI; 50 mg/mL DS after -80 C for 9 months
Galectin-3 (Gal3) [25] = target: T2, Galectin-3 (Gal3); assay: BLI; 20 mg/mL DS after -80 C for 12 months
In short: as §1

Galectin-3 (Gal3) [26] = target: T2, Galectin-3 (Gal3); assay: BLI; 50 mg/mL DS after 25 C for 6 months
Galectin-3 (Gal3) [27] = target: T2, Galectin-3 (Gal3); assay: BLI; 20 mg/mL DS after 4 C for 1 month
Galectin-3 (Gal3) [28] = target: T2, Galectin-3 (Gal3); assay: BLI; 50 mg/mL DS after 4 C for 3 months
Galectin-3 (Gal3) [29] = target: T2, Galectin-3 (Gal3); assay: BLI; 20 mg/mL DS after 5 freeze/thaws
In short: as §1

Galectin-3 (Gal3) [30] = target: T2, Galectin-3 (Gal3); assay: BLI; 50 mg/mL DS after 5 freeze/thaws
Galectin-3 (Gal3) [31] = target: T2, Galectin-3 (Gal3); assay: BLI; 50 mg/mL DS after 40 C for 14 days
Galectin-3 (Gal3) [32] = target: T2, Galectin-3 (Gal3); assay: BLI; 50 mg/mL DS after 40 C for 28 days

T1 sequence (P17931 whole entry): as above

Kd (Galectin-3 [1]): 3 nM
Kd (Galectin-3 [2]): 2.6 nM
IC50 (Galectin-3 [3]): 1.01 µg/mL
Kd (Galectin-3 [4]): 2.6 nM
IC50 (Galectin-3 [5]): 1.8 µg/mL
IC50 (Galectin-3 [6]): 1.05 µg/mL
Kd (Galectin-3 [7]): 3.2 nM
IC50 (Galectin-3 [8]): 2.5 µg/mL
IC50 (Galectin-3 [9]): 2.5 µg/mL
Kd (Galectin-3 [10]): 2.2 nM
Kd (Galectin-3 [11]): 3.1 nM
Kd (Galectin-3 [12]): 3.3 nM
Kd (Galectin-3 [13]): 2 nM
B1: TB006 (antibody, human IgG4 S228P, kappa, V domains shown)
VH: QVQLVQSGAEVKKPGASVKVSCKASGYSFTNYYMHWVRQAPGQRLEWMGWIYPGSGNTNYNEKFQGRVTITADTSASTAYMELSSLRSEDTAVYYCSTAPGGFDVWGQGTTVTVSS
VL: DIVMTQTPLSLSVTPGQPASISCKSSKSLLHSDGITYLYWYLQKPGQSPQLLIYRMSNLASGVPDRFSGSGSGTDFTLKISRVEAEDVGVYYCAQMLEFPLTFGQGTKLEIKR
notes: Tested as formulated drug substance or drug product in 20 mM L-histidine, 5 mM methionine, 100 mM NaCl, 0.02% polysorbate 80, pH 5.8, or diluted in 0.9% saline; also called 4A11.H3L1; IMT006a

Kd (Galectin-3 (Gal3) [14]): 2.3 nM
Kd (Galectin-3 (Gal3) [15]): 3.3 nM
Kd (Galectin-3 (Gal3) [16]): 1.7 nM
Kd (Galectin-3 (Gal3) [17]): 3.9 nM
Kd (Galectin-3 (Gal3) [18]): 2.1 nM
Kd (Galectin-3 (Gal3) [19]): 2.5 nM
Kd (Galectin-3 (Gal3) [20]): 2.9 nM
Kd (Galectin-3 (Gal3) [21]): 2.7 nM
Kd (Galectin-3 (Gal3) [22]): 2.9 nM
Kd (Galectin-3 (Gal3) [23]): 2.6 nM
Kd (Galectin-3 (Gal3) [24]): 2.8 nM
Kd (Galectin-3 (Gal3) [25]): 2.7 nM
Kd (Galectin-3 (Gal3) [26]): 2.4 nM
Kd (Galectin-3 (Gal3) [27]): 3.7 nM
Kd (Galectin-3 (Gal3) [28]): 2.3 nM
Kd (Galectin-3 (Gal3) [29]): 3.1 nM
Kd (Galectin-3 (Gal3) [30]): 2.6 nM
Kd (Galectin-3 (Gal3) [31]): 2.7 nM
Kd (Galectin-3 (Gal3) [32]): 2.3 nM
B2: TB006 (antibody, human IgG4 S228P, kappa, V domains shown)
VH: QVQLVQSGAEVKKPGASVKVSCKASGYSFTNYYMHWVRQAPGQRLEWMGWIYPGSGNTNYNEKFQGRVTITADTSASTAYMELSSLRSEDTAVYYCSTAPGGFDVWGQGTTVTVSS
VL: DIVMTQTPLSLSVTPGQPASISCKSSKSLLHSDGITYLYWYLQKPGQSPQLLIYRMSNLASGVPDRFSGSGSGTDFTLKISRVEAEDVGVYYCAQMLEFPLTFGQGTKLEIKR
notes: Full antibody tested as drug substance (DS) in 20 mM L-histidine, 5 mM methionine, 100 mM NaCl, 0.02% polysorbate-80, pH 5.8; also called 4A11.H3L1; IMT006a
